The target in data set [1] is T1, Tm6PGDH (6-phosphogluconate dehydrogenase from Thermotoga maritima) (Thermotoga maritima, UniProt Q9WYR9, N32D/R33L/T34S).
T1 construct: gene TM_0438; full length in pET20b, C-terminal His tag (LEHHHHHH from primer), E. coli BL21(DE3), Ni-NTA; primers encode N-terminus MKSHIGLI and C-terminus NWEEGEIG before the tag
The experiment in a line: NAD(P)H formation at […] nm, Michaelis-Menten fit. Type of data set: biochemical. As to conditions: 2 mM 6-phosphogluconate, 5 mM MgCl2, 0.5 mM MnCl2, 100 mM HEPES pH 7.5, 70 °C; apparent Km; read-out: Km (mM) / NADP^+. The text has this:
(§1) (6-phosphogluconate dehydrogenase from Thermotoga maritima)

Substrate in data set [2]: NC(=O)c1ccc[n+]([C@@H]2O[C@H](COP(=O)(O)OP(=O)(O)OC[C@H]3O[C@@H](n4cnc5c(N)ncnc54)[C@H](O)[C@@H]3O)[C@@H](O)[C@H]2O)c1
The experiment in a line: purified protein. As to conditions: 2 mM 6-phosphogluconate, 5 mM MgCl2, 0.5 mM MnCl2, 100 mM HEPES pH 7.5, 70 °C, apparent Km. Type of data set: biochemical, Thermotoga maritima.
From the text: as §1

Substrate in data set [3]: NC(=O)c1ccc[n+]([C@@H]2O[C@H](COP(=O)(O)OP(=O)(O)OC[C@H]3O[C@@H](n4cnc5c(N)ncnc54)[C@H](OP(=O)(O)O)[C@@H]3O)[C@@H](O)[C@H]2O)c1
As to the kind of experiment: purified protein. The note with it: 2 mM 6-phosphogluconate, 5 mM MgCl2, 0.5 mM MnCl2, 100 mM HEPES pH 7.5, 70 °C, apparent Km. Type of data set: biochemical, Thermotoga maritima.
From the text: as §1

`NC(=O)c1ccc[n+]([C@@H]2O[C@H](COP(=O)(O)OP(=O)(O)OC[C@H]3O[C@@H](n4cnc5c(N)ncnc54)[C@H](OP(=O)(O)O)[C@@H]3O)[C@@H](O)[C@H]2O)c1` [NADP^+]: in data set [1], the Km was > 100 mM.

B1: Tm6PGDH (6-phosphogluconate dehydrogenase from Thermotoga maritima) (Thermotoga maritima MSB8) (protein)
chain: MKSHIGLIGLAVMGQNLALNIARKGYKVSVYNRTAQRTEEFVKNRVTNEEIEPHYDIESFVKSLERPRKIILMVKAGKPVDDTISQLLPHLEPGDLIIDGGNSHYMDTERRFKELSEKGILFLGMGVSGGEYGALHGPSLMPGGSREAYNLVEEILLEIAAKTEDGPCCTYVGERSAGHFVKMVHNGIEYAIMQAIAEVYHIMRDVLSLSSEEMSSIFEEWNRGELSSFLVEITYKILRKKDEETGKPMVDVILDKAEQKGTGKWTSQAALDLGIPTPSINLAVVERVISHFKDIRTRLSKLYNKRRSATQGSEEFLRDLRNSLFFAMFMAFSQGMWLIAEASKEFGYGVSLSEVLRIWKGGCIIRAKLIDTLRRYISNENAYLLENEEVMNLLKGKIDSLKNILKASIENEIPVPVLSSSYNYFMSLTEERLPANLIQAQRDFFGAHTFERVDREGVFHINWEEGEIG
notes: full length in pET20b, C-terminal His tag (LEHHHHHH from primer), E. coli BL21(DE3), Ni-NTA; primers encode N-terminus MKSHIGLI and C-terminus NWEEGEIG before the tag
Take B1: in the data set “purified protein [2]”, the Km is 4.3 ± 0.4 mM; the kcat (in general, the maximal rate divided by the concentration of active sites) was 23.3 ± 2 s⁻¹; the specificity constant (kcat/Km) (usually the second-order rate constant that governs catalysis at low substrate concentration) was 5400 M⁻¹ s⁻¹. In addition, in “purified protein [3]”, the Km was determined as 0.005 ± 0.0004 mM, the turnover number (kcat) is 17.6 ± 0.7 s⁻¹ and the catalytic efficiency (kcat/Km) was 3.52e+06 M⁻¹ s⁻¹.

B2: Tm6PGDH (6-phosphogluconate dehydrogenase from Thermotoga maritima) (Thermotoga maritima MSB8; N32D) (protein)
chain: MKSHIGLIGLAVMGQNLALNIARKGYKVSVYDRTAQRTEEFVKNRVTNEEIEPHYDIESFVKSLERPRKIILMVKAGKPVDDTISQLLPHLEPGDLIIDGGNSHYMDTERRFKELSEKGILFLGMGVSGGEYGALHGPSLMPGGSREAYNLVEEILLEIAAKTEDGPCCTYVGERSAGHFVKMVHNGIEYAIMQAIAEVYHIMRDVLSLSSEEMSSIFEEWNRGELSSFLVEITYKILRKKDEETGKPMVDVILDKAEQKGTGKWTSQAALDLGIPTPSINLAVVERVISHFKDIRTRLSKLYNKRRSATQGSEEFLRDLRNSLFFAMFMAFSQGMWLIAEASKEFGYGVSLSEVLRIWKGGCIIRAKLIDTLRRYISNENAYLLENEEVMNLLKGKIDSLKNILKASIENEIPVPVLSSSYNYFMSLTEERLPANLIQAQRDFFGAHTFERVDREGVFHINWEEGEIG
notes: as for B1
Regarding B2, in “purified protein [2]”, the Km was determined as 4.0 ± 0.1 mM, the catalytic constant (kcat) was 29.3 ± 1.2 s⁻¹ and the kcat/Km amounted to 7300 M⁻¹ s⁻¹. Also, in the data set “purified protein [3]”, the Km was 2.3 ± 0.1 mM, the kcat came to 16.7 ± 1 s⁻¹ and the kcat/Km is 7300 M⁻¹ s⁻¹.

B3: Tm6PGDH (6-phosphogluconate dehydrogenase from Thermotoga maritima) (Thermotoga maritima MSB8; N32E/R33I/T34I) (protein)
chain: MKSHIGLIGLAVMGQNLALNIARKGYKVSVYEIIAQRTEEFVKNRVTNEEIEPHYDIESFVKSLERPRKIILMVKAGKPVDDTISQLLPHLEPGDLIIDGGNSHYMDTERRFKELSEKGILFLGMGVSGGEYGALHGPSLMPGGSREAYNLVEEILLEIAAKTEDGPCCTYVGERSAGHFVKMVHNGIEYAIMQAIAEVYHIMRDVLSLSSEEMSSIFEEWNRGELSSFLVEITYKILRKKDEETGKPMVDVILDKAEQKGTGKWTSQAALDLGIPTPSINLAVVERVISHFKDIRTRLSKLYNKRRSATQGSEEFLRDLRNSLFFAMFMAFSQGMWLIAEASKEFGYGVSLSEVLRIWKGGCIIRAKLIDTLRRYISNENAYLLENEEVMNLLKGKIDSLKNILKASIENEIPVPVLSSSYNYFMSLTEERLPANLIQAQRDFFGAHTFERVDREGVFHINWEEGEIG
notes: as for B1
As to B3, in the data set “purified protein [2]”, the Km came out at 2.5 ± 0.2 mM, the catalytic constant (kcat) was 47.9 ± 2.2 s⁻¹ and the kcat/Km worked out at 19200 M⁻¹ s⁻¹. For the same molecule, in the data set “purified protein [3]”, the Km was 79 ± 20 mM, the kcat came to 15.9 ± 7.9 s⁻¹ and the catalytic efficiency (kcat/Km) is 200 M⁻¹ s⁻¹.

B4: Tm6PGDH (6-phosphogluconate dehydrogenase from Thermotoga maritima) (Thermotoga maritima MSB8; N32D/R33L/T34S) (protein)
chain: MKSHIGLIGLAVMGQNLALNIARKGYKVSVYDLSAQRTEEFVKNRVTNEEIEPHYDIESFVKSLERPRKIILMVKAGKPVDDTISQLLPHLEPGDLIIDGGNSHYMDTERRFKELSEKGILFLGMGVSGGEYGALHGPSLMPGGSREAYNLVEEILLEIAAKTEDGPCCTYVGERSAGHFVKMVHNGIEYAIMQAIAEVYHIMRDVLSLSSEEMSSIFEEWNRGELSSFLVEITYKILRKKDEETGKPMVDVILDKAEQKGTGKWTSQAALDLGIPTPSINLAVVERVISHFKDIRTRLSKLYNKRRSATQGSEEFLRDLRNSLFFAMFMAFSQGMWLIAEASKEFGYGVSLSEVLRIWKGGCIIRAKLIDTLRRYISNENAYLLENEEVMNLLKGKIDSLKNILKASIENEIPVPVLSSSYNYFMSLTEERLPANLIQAQRDFFGAHTFERVDREGVFHINWEEGEIG
notes: as for B1
As for B4, in “purified protein [2]”, the Km stood at 7.5 ± 0.8 mM, the catalytic constant (kcat) came to 25.4 ± 1.4 s⁻¹ and the catalytic efficiency (kcat/Km) worked out at 3400 M⁻¹ s⁻¹.

B5: Tm6PGDH (6-phosphogluconate dehydrogenase from Thermotoga maritima) (Thermotoga maritima MSB8; N32D/R33I/T34I) (protein)
chain: MKSHIGLIGLAVMGQNLALNIARKGYKVSVYDIIAQRTEEFVKNRVTNEEIEPHYDIESFVKSLERPRKIILMVKAGKPVDDTISQLLPHLEPGDLIIDGGNSHYMDTERRFKELSEKGILFLGMGVSGGEYGALHGPSLMPGGSREAYNLVEEILLEIAAKTEDGPCCTYVGERSAGHFVKMVHNGIEYAIMQAIAEVYHIMRDVLSLSSEEMSSIFEEWNRGELSSFLVEITYKILRKKDEETGKPMVDVILDKAEQKGTGKWTSQAALDLGIPTPSINLAVVERVISHFKDIRTRLSKLYNKRRSATQGSEEFLRDLRNSLFFAMFMAFSQGMWLIAEASKEFGYGVSLSEVLRIWKGGCIIRAKLIDTLRRYISNENAYLLENEEVMNLLKGKIDSLKNILKASIENEIPVPVLSSSYNYFMSLTEERLPANLIQAQRDFFGAHTFERVDREGVFHINWEEGEIG
notes: as for B1
B5: in the data set “purified protein [2]”, the Km is recorded as 3.9 ± 0.4 mM, the turnover number (kcat) was 32.2 ± 2.2 s⁻¹ and the kcat/Km is 8300 M⁻¹ s⁻¹. In the data set “purified protein [3]”, the Km was 70 ± 17 mM, the kcat worked out at 15.9 ± 5.8 s⁻¹ and the kcat/Km worked out at 200 M⁻¹ s⁻¹.
